Substitutions are numbered along the chain they refer to. One block for each binder: values may come before it.
Key:
human VEGF (hVEGF) [1] = biological target: T1, human VEGF (hVEGF) (human, UniProt P15692 181-395); assay: SPR single-cycle;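 for Fold change (relative to G6.31): fab variants injected over hVEGF immobilized on a CM5 chip (Biacore T200), threefold dilution series from 0.02 to 50 nM, kinetics fitted with a 1:1 Langmuir model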
T1 construct: also called VEGF-A
T1 sequence: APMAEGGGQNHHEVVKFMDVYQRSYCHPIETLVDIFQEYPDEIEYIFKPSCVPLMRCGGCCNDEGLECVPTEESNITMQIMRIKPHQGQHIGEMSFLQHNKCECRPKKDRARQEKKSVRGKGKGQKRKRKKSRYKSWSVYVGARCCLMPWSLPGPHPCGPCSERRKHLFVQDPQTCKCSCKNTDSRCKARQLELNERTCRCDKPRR

human VEGF (hVEGF) [2] = biological target: T1, human VEGF (hVEGF); assay: SPR single-cycle; remark: listed apart in the source;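 for Fold change (relative to G6.31): fab variants injected over hVEGF immobilized on a CM5 chip (Biacore T200), threefold dilution series from 0.02 to 50 nM, kinetics fitted with a 1:1 Langmuir model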
Source text: (§1) To determine the binding affinity of selected Fab variants, SPR measurement with a BIACORE® T200 instrument was used. Briefly, series S sensor chip CM5 was activated with 1-ethyl-3-(3-dimethylaminopropyl) carbodiimide (EDC) and N-hydroxysuccinimide (NHS) reagents according to the supplier's instructions, and human VEGF (hVEGF) was coupled to achieve 50-80 response units (RU), then following by blocking un-reacted groups with 1M ethanolamine.
(§2) Three-fold serial dilutions of Fab in HBS-P buffer (0.01 M HEPES pH 7.4, 0.15 M NaCl, 0.005% surfactant P20) from low (0.02 nM) to high (50 nM) were injected (flow rate: 30 μl/min). The binding responses on hVEGF were corrected by subtracting of RU from a blank flow cell. The sensorgram was recorded and subject to reference and buffer subtraction before evaluating by BIACORE® T200 Evaluation Software (version 2.0). Association rates (kₒₙ) and dissociation rates (koff) were calculated using a simple one-to-one Langmuir binding model. The equilibrium dissociation constant (Kd) was calculated as the ratio koff/kₒₙ.

human VEGF (hVEGF) [3] = biological target: T1, human VEGF (hVEGF); assay: SPR
Source text: as §1, §2

Fold difference (relative to G6.31) (human VEGF (hVEGF) [1]): 1.5 fold
Kd (human VEGF (hVEGF) [1]): 1.02 nM
koff (human VEGF (hVEGF) [1]): 0.000358 s⁻¹
kon (human VEGF (hVEGF) [1]): 352000 M⁻¹ s⁻¹
B1: G6.31 HC-Y58Q (Fab, name in Kabat numbering, V domains shown)
VH: EVQLVESGGGLVQPGGSLRLSCAASGFTISDYWIHWVRQAPGKGLEWVAGITPAGGYTQYADSVKGRFTISADTSKNTAYLQMNSLRAEDTAVYYCARFVFFLPYAMDYWGQGTLVTVSS
VL: DIQMTQSPSSLSASVGDRVTITCRASQDVSTAVAWYQQKPGKAPKLLIYSASFLYSGVPSRFSGSGSGTDFTLTISSLQPEDFATYYCQQGYGNPFTFGQGTKVEIK
notes: Fab

Fold difference (relative to G6.31) (human VEGF (hVEGF) [1]): 1.8 fold
Kd (human VEGF (hVEGF) [1]): 0.85 nM
koff (human VEGF (hVEGF) [1]): 0.000515 s⁻¹
kon (human VEGF (hVEGF) [1]): 603000 M⁻¹ s⁻¹
B2: G6.31 LC-Q37A (Fab, V domains shown)
VH: B1 VH with Q59Y
VL: B1 VL with Q37A
notes: Fab

Fold change (relative to G6.31) (human VEGF (hVEGF) [2]): 0.1 fold
Kd (human VEGF (hVEGF) [2]): 11.7 nM
koff (human VEGF (hVEGF) [2]): 0.000531 s⁻¹
kon (human VEGF (hVEGF) [2]): 45300 M⁻¹ s⁻¹
B3: G6.31 LC-Y55E (Fab, V domains shown)
VH: B1 VH with Q59Y
VL: B1 VL with Y55E
notes: Fab

Fold change (relative to G6.31) (human VEGF (hVEGF) [2]): 1.7 fold
Kd (human VEGF (hVEGF) [2]): 0.974 nM
koff (human VEGF (hVEGF) [2]): 0.000418 s⁻¹
kon (human VEGF (hVEGF) [2]): 429000 M⁻¹ s⁻¹
B4: G6.31 LC-G57E (Fab, V domains shown)
VH: B1 VH with Q59Y
VL: B1 VL with G57E
notes: Fab

Kd (human VEGF (hVEGF) [3]): 1.75 nM
koff (human VEGF (hVEGF) [3]): 0.000808 s⁻¹
kon (human VEGF (hVEGF) [3]): 463000 M⁻¹ s⁻¹
B5: LCcombo4 (G6.31 WT VH with LCcombo4 VL) (Fab, V domains shown)
VH: B1 VH with Q59Y
VL: B1 VL with R18E, F83A, N94A
notes: Fab

Fold change (relative to G6.31) (human VEGF (hVEGF) [2]): 0.9 fold
Kd (human VEGF (hVEGF) [2]): 1.96 nM
koff (human VEGF (hVEGF) [2]): 0.00045 s⁻¹
kon (human VEGF (hVEGF) [2]): 230000 M⁻¹ s⁻¹
B6: G6.31 LC-Q27E (Fab, V domains shown)
VH: B1 VH with Q59Y
VL: B1 VL with Q27E
notes: Fab

Fold change (relative to G6.31) (human VEGF (hVEGF) [2]): 7.7 fold
Kd (human VEGF (hVEGF) [2]): 0.222 nM
koff (human VEGF (hVEGF) [2]): 0.00045 s⁻¹
kon (human VEGF (hVEGF) [2]): 2.03e+06 M⁻¹ s⁻¹
B7: G6.31 HC-T77K (Fab, name in Kabat numbering, V domains shown)
VH: B1 VH with Q59Y, T78K
VL: B1 VL
notes: Fab

Fold change (relative to G6.31) (human VEGF (hVEGF) [2]): 0.8 fold
Kd (human VEGF (hVEGF) [2]): 2.07 nM
koff (human VEGF (hVEGF) [2]): 0.00103 s⁻¹
kon (human VEGF (hVEGF) [2]): 497000 M⁻¹ s⁻¹
B8: G6.31 LC-Y92E (Fab, V domains shown)
VH: B1 VH with Q59Y
VL: B1 VL with Y92E
notes: Fab

Fold change (relative to G6.31) (human VEGF (hVEGF) [2]): 0.9 fold
Kd (human VEGF (hVEGF) [2]): 1.89 nM
koff (human VEGF (hVEGF) [2]): 0.000464 s⁻¹
kon (human VEGF (hVEGF) [2]): 245000 M⁻¹ s⁻¹
B9: G6.31 LC-S50R (Fab, V domains shown)
VH: B1 VH with Q59Y
VL: B1 VL with S50R
notes: Fab

Fold change (relative to G6.31) (human VEGF (hVEGF) [2]): 2.7 fold
Kd (human VEGF (hVEGF) [2]): 0.62 nM
koff (human VEGF (hVEGF) [2]): 0.000508 s⁻¹
kon (human VEGF (hVEGF) [2]): 820000 M⁻¹ s⁻¹
B10: G6.31 HC-Y58E (Fab, name in Kabat numbering, V domains shown)
VH: B1 VH with Q59E
VL: B1 VL
notes: Fab

Fold difference (relative to G6.31) (human VEGF (hVEGF) [1]): 3.4 fold
Kd (human VEGF (hVEGF) [1]): 0.45 nM
koff (human VEGF (hVEGF) [1]): 0.000542 s⁻¹
kon (human VEGF (hVEGF) [1]): 1.2e+06 M⁻¹ s⁻¹
B11: G6.31 HC-Q81W (Fab, name in Kabat numbering, V domains shown)
VH: B1 VH with Q59Y, Q82W
VL: B1 VL
notes: Fab

Fold change (relative to G6.31) (human VEGF (hVEGF) [2]): 3 fold
Kd (human VEGF (hVEGF) [2]): 0.562 nM
koff (human VEGF (hVEGF) [2]): 0.000399 s⁻¹
kon (human VEGF (hVEGF) [2]): 711000 M⁻¹ s⁻¹
B12: G6.31 LC-S77E (Fab, V domains shown)
VH: B1 VH with Q59Y
VL: B1 VL with S77E
notes: Fab

Fold difference (relative to G6.31) (human VEGF (hVEGF) [1]): 0.8 fold
Kd (human VEGF (hVEGF) [1]): 1.86 nM
koff (human VEGF (hVEGF) [1]): 0.000802 s⁻¹
kon (human VEGF (hVEGF) [1]): 432000 M⁻¹ s⁻¹
B13: G6.31 LC-T97N (Fab, V domains shown)
VH: B1 VH with Q59Y
VL: B1 VL with T97N
notes: Fab

Fold difference (relative to G6.31) (human VEGF (hVEGF) [1]): 1.5 fold
Kd (human VEGF (hVEGF) [1]): 1 nM
koff (human VEGF (hVEGF) [1]): 0.00066 s⁻¹
kon (human VEGF (hVEGF) [1]): 658000 M⁻¹ s⁻¹
B14: G6.31 HC-S70H (Fab, name in Kabat numbering, V domains shown)
VH: B1 VH with Q59Y, S71H
VL: B1 VL
notes: Fab

Kd (human VEGF (hVEGF) [3]): 1.34 nM
koff (human VEGF (hVEGF) [3]): 0.000768 s⁻¹
kon (human VEGF (hVEGF) [3]): 574000 M⁻¹ s⁻¹
B15: LCcombo3 (G6.31 WT VH with LCcombo3 VL) (Fab, V domains shown)
VH: B1 VH with Q59Y
VL: B1 VL with S9E, R18E, K42E, F83A, N94A
notes: Fab

Fold change (relative to G6.31) (human VEGF (hVEGF) [2]): 0.6 fold
Kd (human VEGF (hVEGF) [2]): 2.68 nM
koff (human VEGF (hVEGF) [2]): 0.000462 s⁻¹
kon (human VEGF (hVEGF) [2]): 172000 M⁻¹ s⁻¹
B16: G6.31 LC-A51E (Fab, V domains shown)
VH: B1 VH with Q59Y
VL: B1 VL with A51E
notes: Fab

Source: US20210115124A1 (Genentech, published 2021)
